Test results reported in patent publication US20090087417A1, “METHODS FOR PROMOTING DOPAMINERGIC NEURONAL DEVELOPMENT BY USING NG4A-SUBFAMILY AND WNT-LIGANDS” (priority 2002, published 2009).

How the values were obtained:
Assay type in all cases: cell-based, rat
[1] = system: E13.5 primary cultures from the cerebral cortex; experiment: Induction of TH in Nurr1+ E13.5 cerebral cortex primary cultures; settings: for proportion of Nurr1 positive cortical cells that expressed TH: Wnt ligands or co-culture with P1 astrocytes
Procedure: (§1) Ventral mesencephala and cerebral cortices from embryos E13.5-14.5 obtained from timed-mated Sprague-Dawley rats were dissected, mechanically dissociated and plated at a final density of 1×10^5 cells/cm2 on poly-D-lysine coated 12- or 24-well plates in a defined, serum-free medium (N2, consisting of a 1:1 mixture of F12 and DMEM containing insulin (10 ng/ml), transferrin (100 μg/ml), putrescine (100 μM), progesterone (20 nM), selenium (30 nM), glucose (6 mg/ml), and bovine serum albumin (1 mg/ml)). Purified Type 1 astrocytes were obtained from mixed glial cultures derived from the VM or CTX of P1 rats according to a standard protocol (Wagner et al., 1999). After shaking and replating into 12-well plates, astrocytes were grown to confluency in 15% fetal bovine serum-containing media and changed to N2 medium, at which time freshly dissected VM or CTX cells were plated on top of the astrocytes at a density of 1×10^5 cells/cm2. All factors were added once, at the initiation of culture, with the exception of 5-bromodeoxyuridine (BrdU), which was added 4-6 hours prior to fixation. Cultures were maintained in a humidified 5% CO2, 95% air incubator at 37° C. and fixed after given time periods with 4% paraformaldehyde for 45 minutes prior to immunocytochemical analysis.
(§2) Fixed cultures were incubated with one of the following antibodies, diluted appropriately in phosphate-buffered saline (PBS) containing 1% bovine serum albumin and 0.3% Triton-X 100: mouse anti-BrdU, 1:50 (DAKO, Denmark), mouse anti-β-tubulin, Type III (TuJ1), 1:250 (Sigma), mouse anti-TH, 1:1000 (Incstar, USA), rabbit anti-TH, 1:250 (PelFreeze); rabbit anti-Nurr1, 1:2000 (gift from Dr. T. Perlmann, Sweden), rabbit anti-Nurr1, 1:1000 (Santa Cruz, USA) or mouse anti-Nurr1, 1:250 (BD Transduction Laboratories, USA), rabbit anti Adh2 1:4000 (gift from Dr. R. Lindahl, South Carolina). Incubations were either carried out at 4° C. overnight, or at room temperature for 1 hour. Both processes yielded similar results. After washing, cultures were incubated for 1-3 hr with appropriate secondary antibodies (biotinylated 1:500; CY2-, FITC-, or rhodamine-coupled horse-anti-mouse IgG 1:100; or goat-anti-rabbit IgG 1:100; all from Vector, USA), in the same dilution buffer. Brightfield immunostaining was visualized with the Vector Laboratory ABC immunoperoxidase kit, using either NovaRed (red), or AEC (red), SG or 3-3′ dimaminobenzidine tetrahydrochloride (DAB 0.5 mg/ml)/nickel chloride (1.6 mg/ml) (gray/black), or VIP (violet) substrates. Double-staining was performed by sequential single staining as described. The order of staining was only critical for BrdU-double labeling, in which case the BrdU procedure was always performed second. […] Photos were acquired with a Zeiss Axioplan 100M microscope and collected with a Hamamatsu camera C4742-95 (with the QED imaging software).
Only clearly stained cells were counted as positive cells. Spheres were considered positive if they contained one or more positive cell. Quantitative immunocytochemical data on individual cells represent means and standard errors of counts obtained by a blinded observer from 10-20 non-overlapping fields (cells) or in the entire well (clusters), in each of 3-4 wells per condition from 3-4 independent experiments, unless stated otherwise. […]

[2] = system: VM precursor cultures / Nurr1+ precursor cells; experiment: BrdU incorporation (proliferation) in VM precursor cultures; settings: for increase in Nurr1 and BrdU double positive precursor cells (mitosis in Nurr1+ population): 1 day in vitro; for BrdU incorporation in VM precursor cultures: 3 days in vitro
Procedure: as §1, §2
Only clearly stained cells were counted as positive cells. Spheres were considered positive if they contained one or more positive cell. Quantitative immunocytochemical data on individual cells represent means and standard errors of counts obtained by a blinded observer from 10-20 non-overlapping fields (cells) or in the entire well (clusters), in each of 3-4 wells per condition from 3-4 independent experiments, unless stated otherwise. For each variable, initial statistical comparisons were performed by a global ANOVA, with multiple factors of dose, time point, treatment and/or region; if significant interactions between treatment and any other variable existed, data were further divided into separate times, doses or regions. Fisher's protected least significant difference was used post hoc to identify specific points at which the treatments differed from controls (or each other) only when significant interactions between factor treatment and other variables occurred. Significance for all tests was assumed at the level of p<0.05. […]

[3] = system: E14.5 ventral mesencephalic precursor cultures; experiment: Number of TH+ neurons in E14.5 ventral mesencephalic precursor cultures; settings: for effects on TH+ cell numbers, time course: 10 units, 1, 3 and 7 days in vitro; for increases in TH+ cell numbers compared with GDNF, FGF-2 or FGF-8 / increases in TH+ cell numbers compared with VM T1A conditioned medium: after 3 days; for TH+ cell numbers: increasing concentrations of partially purified Wnt, 3 days; for increase in TH+ neurons: partially purified Wnts, compared to controls (FIG. 10A)
Procedure: as §1
B1A fibroblast lines stably overexpressing hemagglutanin-tagged Wnt-1a, 3a, or 5a (Shimizu H., 1997) were grown in standard complete media (DMEM+10% FBS) supplemented with 100 ug/ml G-418. For collection of conditioned media, cells were replated at low density in complete media and allowed to reach 50-75% confluency, at which point cells were washed and media was replaced with serum-free N2 (with 10 μM sodium butyrate) for 24 hours. Conditioned media from sister flasks was then harvested, pooled as lots and stored at −80° C. for up to 2 months. When compared to fresh CM, no loss of activity was observed when using this collection and storage routine. T1A CM was harvested using a similar procedure, with the exception that media was collected after 3 days in vitro.
For concentration, individual lots of CM were thawed at room temperature, divided into 80 ml aliquots, loaded onto Centricon-Plus 80 columns (Millipore) and concentrated via centrifugation according to the manufacturers instructions. Following concentration, aliquots were re-pooled and frozen at −80 C after a sample was taken for determination of protein content and Western blot analysis. In brief, 20 ug of protein was loaded onto a 10% polyacrylamide mini-gel and run under denaturing conditions at 150 V for approximately 30 minutes. After dry electroblot transfer onto PVDF membranes (Hybond P, Amersham Pharmacia Biotech, Upsalla, Sweden) and pre-incubation for 30 minutes in a blocking buffer consisting of 3% bovine serum albumin in Tris-Buffered Saline with […] Triton-X 100 (TBST), blots were incubated with mouse anti-hemagglutinin (Babco) diluted 1:1000 in TBST overnight at 4 C. After washing, blots were incubated with alkaline phosphatase-coupled goat anti-mouse IgG (Santa Cruz) diluted 1:1000 in TBST for 1 hour at room temperature. Blots were visualized using the Amersham ECF reagent and blue fluorescence quantitated using a Molecular Devices Storm 840 phosphoimager.
B1A fibroblast lines were cotransfected with the mFz8CRD-IgG/pRK5 and the pIRES puro 2 (Clontech, BD Bioscience, Erembodegem, Belgium) plasmids, using Lipofectamine Plus reagent (Invitrogen, Lidingo, Sweden) according to the instruction of the manufacturer. Upon selection for puromycin resistance (1 μg/ml Sigma, Stockholm, Sweden), clones were isolated and expanded. A clone overexpressing Fz8CRD 700× (real time RT-PCR analysis) was identified. Harvesting and partial purification of Fz8CRD conditioned media were performed as described previously. In all the blocking experiments performed, the Fz8CRD and B1A control partial purified conditioned medias were used at a final concentration of 125-250 μg/ml. […]

B1: Wnt-1: Partially purified conditioned media from stable fibroblast cell line engineered to secrete Wnt-1 ligand (protein)
chain: ANSSGRWWGIVNIASSTNLLTDSKSLQLVLEPSLQLLSRKQRRLIRQNPGILHSVSGGLQSAVRECKWQFRNRRWNCPTAPGPHLFGKIVNRGCRETAFIFAITSAGVTHSVARSCSEGSIESCTCDYRRRGPGGPDWHWGGCSDNIDFGRLFGREFVDSGEKGRDLRFLMNLHNNEAGRTTVFSEMRQECKCHGMSGSCTVRTCWMRLPTLRAVGDVLRDRFDGASRVLYGNRGSNRASRAELLRLEPEDPAHKPPSPHDLVYFEKSPNFCTYSGRLGTAGTAGRACNSSSPALDGCELLCCGRGHRTRTQRVTERCNCTFHWCCHVSCRNCTHTRVLHECL
modifications: left off: small tags and cut ends
What does the source list for B1?
proportion of Nurr1 positive cortical cells that expressed TH [1]: significant increase; increase in Nurr1 and BrdU double positive precursor cells (mitosis in Nurr1+ population) [2]: 3 fold; BrdU incorporation in VM precursor cultures [2]: increased; effects on TH+ cell numbers, time course [3]: detected as early as after 1 day in vitro; increases in TH+ cell numbers compared with GDNF, FGF-2 or FGF-8 [3]: exceeded increases produced by known dopaminotrophic molecules; increases in TH+ cell numbers compared with VM T1A conditioned medium [3]: roughly equaled; TH+ cell numbers [3]: robust dose-response increases

B2: Wnt-5a: Partially purified conditioned media from stable fibroblast cell line engineered to secrete Wnt-5a ligand (protein)
chain: IIGAQPLCSQLAGLSQGQKKLCHLYQDHMQYIGEGAKTGIKECQYQFRHRRWNCSTVDNTSVFGRVMQIGSRETAFTYAVSAAGVVNAMSRACREGELSTCGCSRAARPKDLPRDWLWGGCGDNIDYGYRFAKEFVDARERERIHAKGSYESARILMNLHNNEAGRRTVYNLADVACKCHGVSGSCSLKTCWLQLADFRKVGDALKEKYDSAAAMRLNSRGKLVQVNSRFNSPTTQDLVYIDPSPDYCVRNESTGSLGTQGRLCNKTSEGMDGCELMCCGRGYDQFKTVQTERCHCKFHWCCYVKCKKCTEIVDQFVCK
modifications: left off: small tags and cut ends
Which “increase in number of double Nurr1/TH+ cells compared to Wnt-1” value ([1]; 3 days) does the source give for B2 here?
Its value is > 4 fold.

What about the “increase in number of double Nurr1/TH+ cells compared to control” value ([1]; 3 days) of the same molecule?
Its value is > 40 fold.

And the “proportion of Nurr1 positive cortical cells that expressed TH” value [1]?
The value was “significant increase”.

And the “increase in Nurr1 and BrdU double positive precursor cells (mitosis in Nurr1+ population)” value [2]?
The value was “two”.

What about the “BrdU incorporation in VM precursor cultures” value (“BrdU incorporation” below) [2] of the same molecule?
The value was “not”.

What about the “effects on TH+ cell numbers, time course” value [3] of the same molecule?
The value was “detected as early as after 1 day in vitro”.

What about the “increases in TH+ cell numbers compared with GDNF, FGF-2 or FGF-8” value [3] of the same molecule?
The value was “exceeded increases produced by known dopaminotrophic molecules”.

What about the “increases in TH+ cell numbers compared with VM T1A conditioned medium” value [3] of the same molecule?
The value was “roughly equaled”.

What about the “TH+ cell numbers” value [3] of the same molecule?
Its value is “robust dose-response increases”.

B3: Wnt-7a: Partially purified / conditioned media from Wnt-7a overexpressing fibroblast cell line (protein, UniProt P24383 32-349, looked up)
Protein Wnt-7a: LGASIICNKIPGLAPRQRAICQSRPDAIIVIGEGSQMGLDECQFQFRNGRWNCSALGERTVFGKELKVGSREAAFTYAIIAAGVAHAITAACTQGNLSDCGCDKEKQGQYHRDEGWKWGGCSADIRYGIGFAKVFVDAREIKQNARTLMNLHNNEAGRKILEENMKLECKCHGVSGSCTTKTCWTTLPQFRELGYVLKDKYNEAVHVEPVRASRNKRPTFLKIKKPLSYRKPMDTDLVYIEKSPNYCEEDPVTGSVGTQGRACNKTAPQASGCDLMCCGRGYNTHQYARVWQCNCKFHWCCYVKCNTCSERTEMYTCK
modifications: conditioned medium
notes: Partially purified / conditioned media from Wnt-7a overexpressing fibroblast cell line
Which “BrdU incorporation” value [2] does the source give for B3 here?
Its value is “BrdU+ increases similar to that of Wnt-1”.

What about the “increase in TH+ neurons” value [3] of the same molecule?
Its value is “modest TH+ increases”.

B4: Wnt-2: Partially purified / conditioned media from Wnt-2 overexpressing fibroblast cell line (protein, UniProt P21552 26-360, looked up)
Protein Wnt-2: SWWYMRATGGSSRVMCDNVPGLVSRQRQLCHRHPDVMRAIGLGVAEWTAECQHQFRQHRWNCNTLDRDHSLFGRVLLRSSRESAFVYAISSAGVVFAITRACSQGELKSCSCDPKKKGSAKDSKGTFDWGGCSDNIDYGIKFARAFVDAKERKGKDARALMNLHNNRAGRKAVKRFLKQECKCHGVSGSCTLRTCWLAMADFRKTGDYLWRKYNGAIQVVMNQDGTGFTVANKRFKKPTKNDLVYFENSPDYCIRDREAGSLGTAGRVCNLTSRGMDSCEVMCCGRGYDTSHVTRMTKCECKFHWCCAVRCQDCLEALDVHTCKAPKSADWATPT
modifications: conditioned medium
notes: Partially purified / conditioned media from Wnt-2 overexpressing fibroblast cell line
Which “BrdU incorporation” value [2] does the source give for B4 here?
Its value is “slight decrease”.

What about the “increase in TH+ neurons” value [3] of the same molecule?
Its value is ~2 fold.
